Laboratory results reported in patent US20110312897.

System: C-terminally 6xHIS tagged, full-length recombinant histone H3

Row | Substance | H3 cleavage assay with pre-activated enzyme, immunoblot with HIS and H3.cs1 antibodies
1 | recombinant Cathepsin K (Calbiochem Cat. No. 342001) | Cathepsin K produces a similar pattern to Cathepsin L under these assay conditions
2 | recombinant Cathepsin B (R&D Systems Cat No. BAF965) | Cathepsin B cleaves rH3 with a distinct pattern from Cathepsins K or L and does not significantly produce the H3.cs1 epitope
